Laboratory results taken from patent US20250052758A1 (PIERRE FABRE MEDICAMENT, published 2025).

Molecular target: T1, P-selectin glycoprotein ligand 1 (PSGL-1) expressed by cells (naive human T cells, HL-60 cells, PBMCs) (human, UniProt Q14242 42-412)
T1 construct: also called SELPLG; CD162
T1 sequence: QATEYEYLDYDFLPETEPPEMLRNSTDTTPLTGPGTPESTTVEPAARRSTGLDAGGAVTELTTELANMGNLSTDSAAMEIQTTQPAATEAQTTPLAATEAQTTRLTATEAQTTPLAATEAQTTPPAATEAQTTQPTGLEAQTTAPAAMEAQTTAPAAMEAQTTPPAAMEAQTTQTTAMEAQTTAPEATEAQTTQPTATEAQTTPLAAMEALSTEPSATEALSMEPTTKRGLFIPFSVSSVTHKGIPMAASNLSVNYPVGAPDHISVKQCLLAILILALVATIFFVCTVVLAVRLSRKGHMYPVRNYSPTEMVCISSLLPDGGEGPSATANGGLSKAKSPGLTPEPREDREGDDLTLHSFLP
Assay: CAPTIREC/TRICEPS ligand-receptor capture on naive human T cells, LC-MS/MS; enrichment against the anti-CD28 antibody control
Protocol: An overview of the […]™ procedure is outlined in FIG. 1. Briefly, the VISTA-Fc fusion protein and the anti-CD28 antibody were separately coupled with TRICEPS™ Naïve human T cells were isolated from commercially available primary human T cells. The surface glycoproteins of the naïve T cells were selectively oxidized. Ligand binding and receptor coupling to the cell surface of the oxidized naïve T cells was performed. The reacted T cells were then lysed and the resulting lysate was affinity purified for the ligand-receptor protein complexes. The purified proteins where then cleaved by trypsin digestion, thereby releasing receptor peptides. The resulting receptor peptides were analyzed by liquid chromatography-tandem mass spectrometry (LC-MS/MS). […]
The resulting receptor peptides were analyzed by LC-MS/MS on a Thermo LTQ Orbitrap XL spectrometer fitted with an electrospray ion source. The samples were measured in data dependent acquisition mode in a 120 min gradient using a 10 cm C18 packed column. Six individual samples in the […]™ dataset were analyzed with a statistical ANOVA model. […]
Peptide identifications were filtered to an FDR of <=1% and quantified using an MS1-based label-free approach. For the MS1 quantification, the nonlinear DYNAMICS Progenesis QI for proteomics software was used, set to consider all unique peptides. […]

Log2 FC: 2.33 log2 fold change
B1: VISTA-Fc fusion protein (Fc fusion)
chain: FKVATPYSLYVCPEGQNVTLTCRLLGPVDKGHDVTFYKTWYRSSRGEVQTCSERRPIRNLTFQDLHLHHGGHQAANTSHDLAQRHGLESASDHHGNFSITMRNLTLLDSGLYCCLVVEIRHHHSEHRVHGAMELQVQTGKDAPSNCVVYPSSSQDSENIRSVECPPCPAPPVAGPSVFLFPPKPKDTLMISRTPEVTCVVVDVSHEDPEVKFNWYVDGVEVHNAKTKPREEQYNSTYRVVSVLTVLHQDWLNGKEYKCKVSNKGLPSSIEKTISKAKGQPREPQVYTLPPSREEMTKNQVSLTCLVKGFYPSDIAVEWESNGQPENNYKTTPPVLDSDGSFFLYSKLTVDKSRWQQGNVFSCSVMHEALHNHYTQKSLSLSPGK
